± gives the uncertainty stated by the source.
Test: protein stability index of a GFP-peptide fusion (yeast GPS) (PSI 1-4); higher = more stable; sorted into four equal gates, so the index is relative within each strain
How it was run: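 Each library plasmid carries Cherry plus GFP with a tiled 17-residue yeast protein peptide fused downstream, and the pooled library was carried in yeast. Mid-log cultures in leucine-free medium were sorted into four equal gates by GFP/Cherry ratio. Reads from Illumina sequencing of PCR-amplified plasmids from each gate were assigned to strains by barcodes. Per peptide, the protein stability index was computed as the summed products of gate read frequency and gate number.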

Sequence | protein stability index (doa10∆) | protein stability index (pdr5∆) | protein stability index (san1∆) | protein stability index (ubr1∆)
DTKKVKESPANDQASNE [YIL149C/MLP2] | 3.17 ± 0.13 | 3.29 ± 0.1 | 3.12 ± 0.2 | 3.15 ± 0.19
IEKTESVDKKVDSGEER [SWI3] | 3.26 ± 0.098 | 3.3 ± 0.14 | 3.36 ± 0.055 | 3.46 ± 0.066
ILSVKLAELINMTTIAD [SRB6] | 2.6 ± 0.072 | 2.46 ± 0.076 | 2.75 ± 0.069 | 2.85 ± 0.068
ISSRTFGQRAVLKFAAH [RPS0A] | 2.35 ± 0.095 | 2.57 ± 0.098 | 2.69 ± 0.089 | 2.49 ± 0.11
KLSKILRTEYGWDSLAS [SNU114] | 3.17 ± 0.14 | 3.17 ± 0.2 | 3.1 ± 0.21 | 3.3 ± 0.17
LSDYEVLKFLTDLEKKH [RPC17] | 3.38 ± 0.13 | 3.23 ± 0.12 | 3.08 ± 0.086 | 3.11 ± 0.13
GILGNKAQAKMDKRAKN [RPL8A] | 3.59 ± 0.12 | 3.51 ± 0.14 | 3.41 ± 0.057 | 3.63 ± 0.076
NSDHAKFTIEPGVLPVG [SNF2] | 2.23 ± 0.046 | 2.27 ± 0.054 | 2.32 ± 0.098 | 1.83 ± 0.046
KQNEQLHVEQLSGGQKT [SMC3] | 2.07 ± 0.095 | 2.71 ± 0.099 | 2.19 ± 0.1 | 2.19 ± 0.053
AQDFINAYASFLQRQGK [RPS19A] | 2.91 ± 0.061 | 3.07 ± 0.064 | 3.01 ± 0.06 | 3 ± 0.046
FKRDLLREKEDKKNSSD [YJL039C/NUP192] | 3.38 ± 0.13 | 2.92 ± 0.18 | 3.23 ± 0.064 | 3 ± 0.14
TTKILGDKILGNLYSKV [YML103C/NUP188] | 2.69 ± 0.079 | 2.82 ± 0.08 | 3.16 ± 0.058 | 2.75 ± 0.051
KPPSSAFNFSFNTSRNV [YAR002W/NUP60] | 3.2 ± 0.042 | 3.18 ± 0.056 | 3.26 ± 0.045 | 3.05 ± 0.04
AAFEKRYRVDLLNTDHT [RPO21] | 3.11 ± 0.076 | 3 ± 0.059 | 2.89 ± 0.058 | 2.88 ± 0.077
NLKDLNNVKQMVMAGSK [RPO21] | 1.81 ± 0.12 | 1.95 ± 0.12 | – | 1.92 ± 0.077
NELPDIEALYDDDTFSD [RPN2] | 3.12 ± 0.1 | 3.35 ± 0.13 | 3.23 ± 0.12 | 2.98 ± 0.081
RITDASLFQLSKLGKNL [GRR1] | 2.38 ± 0.045 | 2.55 ± 0.05 | 2.12 ± 0.061 | 2.51 ± 0.036
DEVGRRSMLTVVRNMLA [YCG1] | 1.54 ± 0.077 | 2.09 ± 0.079 | 3.01 ± 0.13 | 1.52 ± 0.069
ARAPKYASKAVPHYNRL [RPL25] | 2.94 ± 0.078 | 3 ± 0.065 | 2.79 ± 0.052 | 2.98 ± 0.047

From the supplement of paper PMC9732359
